According to the supplement of paper PMC10567573:

B1: CCNC (parent)
chain: QSSHYLQWILDKQDLLKERQKDLK
B2: INTS3 (parent)
chain: FHPIKETVVEEPVDITPYLDQLDE

Variants of: B1
Test: protein stability index of a GFP-peptide fusion (GPS, HEK-293T) (PSI 1-6); higher = more stable
Settings: c terminus: a fixed tail appended
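Further: lentivirally expressed fusions sorted by FACS into six bins by GFP to DsRed ratio, PSI derived from sequencing read proportions per bin multiplied by bin number.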

Protein stability index, by site and new letter:
L23: Q 3.83 | F 2.82 | N 3.18 | I 3.39 | Y 1.85 | A 3.41 | T 3.27 | R 3.52 | E 3.81 | H 3.31 | G 4.43 | P 2.59 | M 3.31 | W 2.98 | D 4.22 | K 3.6 | V 2.48 | S 3.54 | C 3.31
L16: S 4.05 | E 4 | M 2.52 | K 3.54 | N 4 | T 3.73 | Q 4.15 | V 4.04 | G 3.43 | W 2.92 | Y 2.57 | F 3.23 | A 3.74 | C 3.52 | R 3.78 | I 3.64 | D 3.58 | H 4 | P 4.26
K24: N 3.46 | W 1.78 | R 2.57 | Y 2.17 | M 2.57 | A 2.66 | S 2.81 | L 3.19 | T 2.96 | P 2.4 | H 3.29 | F 2.69 | Q 2.77 | V 2.92 | C 2.29 | I 2.21 | D 4.08 | E 3.78 | G 3.1
Q20: H 3.16 | A 3.12 | T 3.2 | V 2.69 | R 3.5 | Y 2.38 | S 3.38 | D 3.01 | K 3.07 | L 2.17 | C 2.46 | F 2.67 | M 1.99 | W 1.44 | E 2.96 | G 2.98 | I 1.66 | P 2.76 | N 3.21
K21: M 2.9 | S 2.84 | W 2.3 | P 3.42 | T 3.28 | Y 2.69 | I 3.01 | E 2.99 | R 4.05 | D 2.83 | N 2.57 | A 2.78 | G 2.87 | C 2.42 | Q 3.02 | F 1.69 | L 2.43 | H 2.45
D14: M 2.97 | P 3.17 | E 4.29 | G 3.8 | N 3.39 | L 2.8 | Q 3.48 | R 2.7 | F 2.22 | S 2.55 | C 2.79 | K 3.65 | W 2.73 | H 2.83 | V 2.9 | Y 2.61 | A 2.58 | T 3.36 | I 2.55
K17: R 2.33 | Y 2.09 | Q 4.4 | E 3.35 | H 2.93 | D 2.94 | M 3.14 | L 2.68 | F 2.62 | G 2.96 | V 2.82 | S 3.66 | A 3.21 | C 2.71 | T 3.34 | I 2.09 | W 1.97 | N 3.53 | P 3.38
R19: D 3.93 | M 2.12 | I 2.29 | S 2.94 | G 3.25 | A 2.75 | H 3.03 | L 2.06 | Q 3.5 | F 2.14 | C 2.42 | E 3.81 | V 2.19 | T 3.14 | Y 2.72 | N 3.72 | P 3.56 | W 2.64 | K 3.27
D22: Y 2.82 | G 2.6 | Q 2.1 | P 2.6 | I 2.48 | N 2.9 | R 3.72 | E 3.19 | C 2.54 | M 2.55 | W 2.57 | H 3.02 | V 2.79 | A 2.61 | T 2.31 | L 2.08 | K 2.18 | F 2.67 | S 2.59
E18: I 2.84 | H 2.54 | K 2.89 | F 2.15 | T 2.7 | V 2.82 | G 2.53 | D 3.08 | W 1.8 | P 2.56 | R 2.63 | M 2.02 | S 2.54 | Q 2.29 | L 2.33 | Y 2.2 | A 3.67 | C 2.28 | N 2.53
L15: Y 2.8 | V 3.11 | C 3.21 | T 3.72 | I 3.11 | G 3.44 | H 3.72 | P 3.93 | F 2.54 | A 4.19 | W 3.37 | Q 3.94 | N 3.33 | S 3.44 | D 3.47 | R 2.78 | K 3.66 | E 4.08

Variants of: B2
Test: as above
Settings: c terminus: a fixed tail appended

Protein stability index, by site and new letter:
T7: E 4.19 | N 3.55 | S 3.57 | M 3.55 | Y 2.88 | W 2.89
Y18: W 3.11 | N 3.72 | Q 3.95 | E 3.36 | I 2.7 | D 3.43
T16: E 3.75 | S 3.32 | Q 3.79 | P 3 | G 3.44 | H 2.79
E6: A 2.42 | H 2.01 | F 1.53 | V 1.87 | D 3.77
P17: L 2.92 | T 2.94 | S 3.12 | K 2.88 | G 3.46 | H 3.63
K5: Y 2.83 | I 3.14 | M 4.24
F1: W 4.97 | C 5.32 | I 4.99 | H 5.5 | N 5.47 | G 5.5
V9: G 3.93 | W 2 | H 3.05 | L 3.19
D20: R 2.96 | I 2.35 | F 2.41 | C 2.49 | N 2.94 | E 3.48 | W 2.14 | G 2.99
D14: C 3.12 | Y 2.11 | R 2.62 | A 3.05 | V 2.73 | P 3.09 | S 2.75
E24: P 2.63 | D 3.75 | S 2.9 | G 2.73 | I 2.44
P3: W 1.73 | R 3.76 | A 3.82 | H 3.56
P12: S 3.31 | L 3.1 | N 3.57 | V 3.06 | W 2.79 | H 3.29 | D 3.52 | G 3.58
E11: V 2.79 | D 3.15 | G 3.19 | K 3.02
Q21: P 3.15 | L 3.05 | C 2.55 | F 2.55 | A 3.73 | N 3.06 | T 3.19 | I 3.26 | W 2.26
I15: S 2.92 | P 3.53 | G 3.23
V13: L 3.22 | S 3.67 | Y 3.2
L22: N 3.85 | I 3.83 | K 3.7 | D 3.62 | A 3.9
V8: F 2.73 | N 3.59 | Y 3.06 | C 3.76 | R 3.03 | D 3.9 | A 3.87 | Q 4.21 | G 3.91
H2: S 5.47 | F 4.86 | N 5.18 | D 5.42
E10: A 2.39 | Q 2.99 | P 2.98 | T 2.56 | G 2.8 | M 2.16
I4: D 4.08 | T 3.9 | Y 2.77 | P 2.96 | W 2.87
D23: E 3.29 | F 2.28 | H 2.66
L19: P 3.88 | T 3.31
